Common to all, as to test: high-throughput RNA pulldown from lysate on Ni-NTA beads; HRP: 50 mM Tris pH 8, 150 mM NaCl, 1 mM beta-mercaptoethanol, 50 ug/ml BSA, 3 ug/ml yeast RNA, 0.5% heparin; ITC and FP: Tris pH 8, 200 mM KCl, 5% glycerol; MST: 50 mM Tris pH 8, 200 mM NaCl, 1 mM DTT, BSA, heparin, 0.05% Tween 20
Conditions in all cases: tags: N-terminal His-eGFP

The target of data set [1] is T1, GFP-9S library array, motif 4 ND N98K;D124R (synthetic construct, N98K;D124R).
T1 chain: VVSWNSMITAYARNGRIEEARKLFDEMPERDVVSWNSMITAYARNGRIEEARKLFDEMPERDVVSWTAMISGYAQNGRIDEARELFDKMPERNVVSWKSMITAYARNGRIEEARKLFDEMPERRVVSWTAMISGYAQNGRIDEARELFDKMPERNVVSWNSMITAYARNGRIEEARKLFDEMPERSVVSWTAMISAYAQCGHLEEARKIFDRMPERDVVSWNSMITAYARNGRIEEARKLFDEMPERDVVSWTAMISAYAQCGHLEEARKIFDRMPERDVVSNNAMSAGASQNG

In data set [2] the target is T2, GFP-9S library array, motif 4 ND N98G;D124A (synthetic construct, N98G;D124A).
T2 chain: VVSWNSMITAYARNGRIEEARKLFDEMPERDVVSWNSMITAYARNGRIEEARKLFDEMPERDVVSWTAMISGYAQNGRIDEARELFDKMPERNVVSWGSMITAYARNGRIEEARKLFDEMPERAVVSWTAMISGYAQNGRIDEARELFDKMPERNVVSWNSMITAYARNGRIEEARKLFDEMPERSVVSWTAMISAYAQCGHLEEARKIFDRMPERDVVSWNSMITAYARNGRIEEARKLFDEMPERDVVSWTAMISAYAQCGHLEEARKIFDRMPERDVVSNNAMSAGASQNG

The target of data set [3] is T3, GFP-9S library array, motif 4 ND N98S;D124N (synthetic construct, N98S;D124N).
T3 chain: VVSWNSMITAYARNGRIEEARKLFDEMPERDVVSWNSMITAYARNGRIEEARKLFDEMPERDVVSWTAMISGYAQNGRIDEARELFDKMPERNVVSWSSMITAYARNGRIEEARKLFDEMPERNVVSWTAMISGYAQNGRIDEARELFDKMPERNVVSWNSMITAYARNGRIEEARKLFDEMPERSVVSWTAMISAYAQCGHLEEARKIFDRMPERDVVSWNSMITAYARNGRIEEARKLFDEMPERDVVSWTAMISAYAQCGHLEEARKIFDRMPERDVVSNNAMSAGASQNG

Data set [4] concerns the target T4, GFP-9S library array, motif 4 ND D124G (synthetic construct, D124G).
T4 chain: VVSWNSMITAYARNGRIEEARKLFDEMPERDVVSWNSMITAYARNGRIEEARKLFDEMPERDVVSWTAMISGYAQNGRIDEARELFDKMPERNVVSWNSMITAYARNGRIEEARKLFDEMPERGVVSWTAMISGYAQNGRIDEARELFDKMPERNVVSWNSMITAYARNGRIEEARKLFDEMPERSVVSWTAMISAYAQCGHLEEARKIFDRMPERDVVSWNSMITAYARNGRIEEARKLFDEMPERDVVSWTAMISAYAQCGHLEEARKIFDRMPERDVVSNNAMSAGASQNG

Data set [5] concerns the target T5, GFP-9S library array, motif 4 ND N98K;D124L (synthetic construct, N98K;D124L).
T5 chain: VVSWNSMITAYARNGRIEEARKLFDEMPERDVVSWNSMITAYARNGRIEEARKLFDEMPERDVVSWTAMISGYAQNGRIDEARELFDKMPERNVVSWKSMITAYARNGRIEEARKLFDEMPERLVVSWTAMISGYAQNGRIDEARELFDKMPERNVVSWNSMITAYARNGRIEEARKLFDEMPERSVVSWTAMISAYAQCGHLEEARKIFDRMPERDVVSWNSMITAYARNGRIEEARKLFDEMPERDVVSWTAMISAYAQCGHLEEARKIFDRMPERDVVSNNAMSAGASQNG

Consider AUUAAACGUGA (ssRNA) [IR-rpoA-A], for which the Kd – broadly, the concentration at which binding is half-saturated – in data set [1] (label: 5' IRDye 800CW) came out at 139 nM; in data set [2] (label: 5' IRDye 800CW), 133 nM; in data set [3] (label: 5' IRDye 800CW), 50.8 nM; in data set [4] (label: 5' IRDye 800CW) it was 136 nM; in data set [5] (label: 5' IRDye 800CW), 151 nM.
In the case of AUUAGACGUGA (ssRNA) [Cy5-rpoA-G], the Kd in data set [1] (label: 5' Cy5) was determined as 55.5 nM; in data set [2] (label: 5' Cy5) it was 101 nM; in data set [3] (label: 5' Cy5), 296 nM; in data set [4] (label: 5' Cy5), 445 nM; in data set [5] (label: 5' Cy5), 73.5 nM.
As for AUUACACGUGA (ssRNA) [Cy5-rpoA], the Kd was determined as 42.9 nM in data set [1] (label: 5' Cy5); 124 nM in data set [2] (label: 5' Cy5); 235 nM in data set [3] (label: 5' Cy5); 30.7 nM in data set [4] (label: 5' Cy5); 83.5 nM in data set [5] (label: 5' Cy5).
For the molecule AUUAUACGUGA (ssRNA) [IR-rpoA-U], the Kd in data set [1] (label: 5' IRDye 800CW) amounted to 66.9 nM; in data set [2] (label: 5' IRDye 800CW) it was 175 nM; in data set [3] (label: 5' IRDye 800CW), 272 nM; in data set [4] (label: 5' IRDye 800CW) it was 30.7 nM; in data set [5] (label: 5' IRDye 800CW), 174 nM.

The values above are taken from PMC8809517, “Cofactor-independent RNA editing by a synthetic S-type PPR protein”.
